Assay results: patent US5910570

Key:
[1] = target: T1, synthetic acceptor peptide Arg-Ser-Pro-Pro-Pro (RSPPP)
T1 sequence (peptide): RSPPP

[2] = target: synthetic acceptor peptide Pro-Pro-Ala-D-Ser-Thr-D-Ser-Ala-Pro-Gly (PPAdSTdSAPG)
[3] = target: T2, synthetic acceptor peptide Arg-Thr-Pro-Pro-Pro (RTPPP)
T2 sequence (peptide): RTPPP

[4] = target: T3, bovine rhodanese, native (bovine) (UniProt P00586)
T3 sequence: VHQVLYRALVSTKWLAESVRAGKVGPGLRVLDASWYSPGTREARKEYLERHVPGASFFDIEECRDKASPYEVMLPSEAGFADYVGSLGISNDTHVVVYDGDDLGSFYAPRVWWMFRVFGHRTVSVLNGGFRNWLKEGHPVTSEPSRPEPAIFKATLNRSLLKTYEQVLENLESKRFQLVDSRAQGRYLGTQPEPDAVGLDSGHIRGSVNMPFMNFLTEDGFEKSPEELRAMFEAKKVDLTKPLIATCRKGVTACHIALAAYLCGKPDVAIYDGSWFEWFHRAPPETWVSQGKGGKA

[5] = target: bovine cytochrome C, native (bovine) (UniProt P62894)
[6] = target: T4, bovine rhodanese, reduced and carboxymethylated (bovine) (UniProt P00586)
T4 sequence (chain, reduced and carboxymethylated): T3 sequence

[7] = target: myelin basic protein
[8] = target: T5, subtilisin, native (Bacillus amyloliquefaciens (Bacillus velezensis)) (UniProt P00782)
T5 sequence: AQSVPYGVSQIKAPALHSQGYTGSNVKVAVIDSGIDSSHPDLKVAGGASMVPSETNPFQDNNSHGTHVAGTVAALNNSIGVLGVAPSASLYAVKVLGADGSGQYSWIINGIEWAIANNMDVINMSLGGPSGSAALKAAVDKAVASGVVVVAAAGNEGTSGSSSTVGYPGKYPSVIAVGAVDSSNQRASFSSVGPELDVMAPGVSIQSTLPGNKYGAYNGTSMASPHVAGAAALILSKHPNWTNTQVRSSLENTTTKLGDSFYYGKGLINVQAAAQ

[9] = target: T6, subtilisin, reduced and carboxymethylated (Bacillus amyloliquefaciens (Bacillus velezensis)) (UniProt P00782)
T6 sequence (chain, reduced and carboxymethylated): T5 sequence

[10] = target: bovine cytochrome C, reduced and carboxymethylated (bovine) (UniProt P62894)
[11] = target: T1, synthetic acceptor peptide Arg-Ser-Pro-Pro-Pro (RSPPP); remark: listed apart in the source
[12] = target: synthetic acceptor peptide Pro-Pro-Ala-D-Ser-Thr-D-Ser-Ala-Pro-Gly (PPAdSTdSAPG); remark: listed apart in the source

Sequence of myelin basic protein (P02687 whole entry): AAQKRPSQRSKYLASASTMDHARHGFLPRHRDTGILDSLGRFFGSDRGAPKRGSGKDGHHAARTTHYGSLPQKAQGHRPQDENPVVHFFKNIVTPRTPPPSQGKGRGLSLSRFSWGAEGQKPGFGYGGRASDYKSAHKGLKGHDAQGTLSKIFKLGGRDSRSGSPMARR

Vmax/Km [1]: 0.4 M⁻¹ s⁻¹ | Vmax/Km [2]: 1.2 M⁻¹ s⁻¹ | Km [3]: 3.3 mM | Vmax/Km [3]: 183 M⁻¹ s⁻¹ | Product formed [4]: < 0.1 nmol/min/mg | Product formed [5]: < 0.1 nmol/min/mg | Product formed [6]: 3.3 nmol/min/mg | Product formed [7]: 22.2 nmol/min/mg | Product formed [8]: < 0.1 nmol/min/mg | Product formed [9]: 0.6 nmol/min/mg | Product formed [10]: < 0.1 nmol/min/mg | Product formed [11]: 0.67 nmol/min/mg | Product formed [12]: 2 nmol/min/mg
B1: UDP-GalNAc:polypeptide N-acetylgalactosaminyltransferase purified from bovine colostrum (enzyme)
chain: GLPAGDVLEPVQKPHEGPGEMGKPVVIPKEDQEKMKEMFKINQFNLMASEMIALNRSLPDVRLEGCKTKVYPDNLPTTSVVIVFHNEAWSTLLRTVHSVINRSPRHMLEEIVLVDDASERDFLKRPLESYVKKLKVPVHVIRMEQRSGLIRARLKGAAVSKGQVITFLDAHCECTVGWLEPLLARIKHDRKTVVCPIIDVISDDTFEYMAGSDMTYGGFNWKLNFRWYPVPQREMDRRKGDRTLPVRTPTMAGGLFSIDRDYFQEIGTYDAGMDIWGGENLEISFRIWQCGGTLEIVTCSHVGHVFRKATPYTFPGGTGQIINKNNRRLAEVWMDEFKNFFYIISPGVTKVDYGDISSRLGLRHKLQCRPFSWYLENIYPDSQIPRHYFSLGEIRNVETNQCLDNMARKENEKVGIFNCHGMGGNQVFSYTANKEIRTDDLCLDVSKLNGPVTMLKCHHLKGNQLWEYDPVKLTLQHVNSNQCLDKATDEDSQVPSIRDCSGSRSQQWLLRNVTLPEIF
modifications: native glycoprotein (peptide N-glycosidase F shifts it by approximately 6 kDa)
